Laboratory results: article PMC10754689

Legend:
Test in all cases: TPM
[1] = test system: LI Int wt (Listeria innocua prophage (phage LI)); conditions: 5 mM Mg2+, TPM (LI Int): 20 mM Tris-HCl pH 8.0, 150 mM KCl, 5% glycerol, 5 mM MgCl2, 5 mM DTT, 2 mg/mL BSA, 22°C, 30 min, φC31 Int at 20 nM, its buffer not in the …
[2] = test system: LI Int S10A (Listeria innocua prophage (phage LI)); conditions: 5 mM Mg2+, TPM (LI Int): 20 mM Tris-HCl pH 8.0, 150 mM KCl, 5% glycerol, 5 mM MgCl2, 5 mM DTT, 2 mg/mL BSA, 22°C, 30 min, φC31 Int at 20 nM, its buffer not in the …
[3] = test system: LI Int ΔCC (Listeria innocua prophage (phage LI)); conditions: 200 or 400 nM Int, 5 mM Mg2+, TPM (LI Int): 20 mM Tris-HCl pH 8.0, 150 mM KCl, 5% glycerol, 5 mM MgCl2, 5 mM DTT, 2 mg/mL BSA, 22°C, 30 min, φC31 Int at 20 nM, its buffer not in the …
[4] = test system: LI Int K362A (Listeria innocua prophage (phage LI)); conditions: 200 or 400 nM Int, 5 mM Mg2+, TPM (LI Int): 20 mM Tris-HCl pH 8.0, 150 mM KCl, 5% glycerol, 5 mM MgCl2, 5 mM DTT, 2 mg/mL BSA, 22°C, 30 min, φC31 Int at 20 nM, its buffer not in the …
[5] = test system: φC31 Int wt (Streptomyces coelicolor phage φC31); conditions: TPM (LI Int): 20 mM Tris-HCl pH 8.0, 150 mM KCl, 5% glycerol, 5 mM MgCl2, 5 mM DTT, 2 mg/mL BSA, 22°C, 30 min, φC31 Int at 20 nM, its buffer not in the …
[6] = test system: φC31 Int ΔCC (Streptomyces coelicolor phage φC31); conditions: TPM (LI Int): 20 mM Tris-HCl pH 8.0, 150 mM KCl, 5% glycerol, 5 mM MgCl2, 5 mM DTT, 2 mg/mL BSA, 22°C, 30 min, φC31 Int at 20 nM, its buffer not in the …

LI attB-attP head-to-tail 1303 bp showed a binding signal ([1]; 100 nM Int) of 81.1 % DNA bound, a binding signal ([2]; 100 nM Int) of 76.4 % DNA bound and a binding signal [3] of 17.8 % DNA bound. It also gave a binding signal [4] of 54.9 % DNA bound.
For LI attL-attR head-to-tail 1303 bp, the binding signal ([1]; 200 nM Int, no RDF) was 48.6 % DNA bound, the binding signal ([2]; 200 nM Int, no RDF) was 51.7 % DNA bound and the binding signal ([3]; no RDF) was 16.1 % DNA bound. It also gave a binding signal ([4]; no RDF) of 20.5 % DNA bound.
φC31 attB-attP head-to-tail 1303 bp showed a binding signal ([5]; 20 nM Int) of 80.4 % DNA bound and a binding signal ([6]; 20 nM Int) of 30.6 % DNA bound.
With φC31 attL-attR head-to-tail 1303 bp the binding signal [5] was 19.9 % DNA bound and the binding signal [6] was 21 % DNA bound.
